Source: patent publication US20130079278A1 (Novo Nordisk, published 2013)
*1 amine or outer side, *2 acyl side, *3 side chain or, on linkers, in order; H or OH if unused. Where no end group is shown, it is not given here. Side-chain parts run from the residue outwards. The star is where a group is joined. X1 = 4‑(16-(1H-tetrazol-5-yl)hexadecanoylsulfamoyl)butanoyl, O=C(CCCCCCCCCCCCCCCc1nnn[nH]1)NS(=O)(=O)CCCC(=O)*; X2 = 4‑(16-(1H-tetrazol-5-yl)hexadecanoylsulfamoyl)butanoyl, O=C(CCCCCCCCCCCCCCCc1nn[nH]n1)NS(=O)(=O)CCCC(=O)*; C18 diacid = O=C(O)CCCCCCCCCCCCCCCCC(=O)*; C16 diacid = O=C(O)CCCCCCCCCCCCCCC(=O)*; γGlu = O=C(O)[C@H](CCC(=O)[*:2])N[*:1]; AEEA = NCCOCCOCC(=O)O

B1: N^ε24-[(4S)-4-carboxy-4-[[(4S)-4-carboxy-4-[[(4S)-4-carboxy-4-[[(4S)-4-carboxy-4-(17-carboxyheptadecanoylamino)butanoyl]amino]butanoyl]amino]butanoyl]amino]buta … (peptide)
peptide: HSQGTFTSDYSKYLDIRRAQDFVK([γGlu-γGlu-γGlu-γGlu-C18 diacid])WLLST-NH2
modifications: N-terminus assumed
SMILES: CC[C@H](C)[C@H](NC(=O)[C@H](CC(=O)O)NC(=O)[C@H](CC(C)C)NC(=O)[C@H](Cc1ccc(O)cc1)NC(=O)[C@H](CCCCN)NC(=O)[C@H](CO)NC(=O)[C@H](Cc1ccc(O)cc1)NC(=O)[C@H](CC(=O)O)NC(=O)[C@H](CO)NC(=O)[C@@H](NC(=O)[C@H](Cc1ccccc1)NC(=O)[C@@H](NC(=O)CNC(=O)[C@H](CCC(N)=O)NC(=O)[C@H](CO)NC(=O)[C@@H](N)Cc1c[nH]cn1)[C@@H](C)O)[C@@H](C)O)C(=O)N[C@@H](CCCNC(=N)N)C(=O)N[C@@H](CCCNC(=N)N)C(=O)N[C@@H](C)C(=O)N[C@@H](CCC(N)=O)C(=O)N[C@@H](CC(=O)O)C(=O)N[C@@H](Cc1ccccc1)C(=O)N[C@H](C(=O)N[C@@H](CCCCNC(=O)CC[C@H](NC(=O)CC[C@H](NC(=O)CC[C@H](NC(=O)CC[C@H](NC(=O)CCCCCCCCCCCCCCCCC(=O)O)C(=O)O)C(=O)O)C(=O)O)C(=O)O)C(=O)N[C@@H](Cc1c[nH]c2ccccc12)C(=O)N[C@@H](CC(C)C)C(=O)N[C@@H](CC(C)C)C(=O)N[C@@H](CO)C(=O)N[C@H](C(N)=O)[C@@H](C)O)C(C)C

biological target: glucagon receptor (human, UniProt P47871 26-477); assay: cell-based or functional assay
Sequence (P47871 26-477): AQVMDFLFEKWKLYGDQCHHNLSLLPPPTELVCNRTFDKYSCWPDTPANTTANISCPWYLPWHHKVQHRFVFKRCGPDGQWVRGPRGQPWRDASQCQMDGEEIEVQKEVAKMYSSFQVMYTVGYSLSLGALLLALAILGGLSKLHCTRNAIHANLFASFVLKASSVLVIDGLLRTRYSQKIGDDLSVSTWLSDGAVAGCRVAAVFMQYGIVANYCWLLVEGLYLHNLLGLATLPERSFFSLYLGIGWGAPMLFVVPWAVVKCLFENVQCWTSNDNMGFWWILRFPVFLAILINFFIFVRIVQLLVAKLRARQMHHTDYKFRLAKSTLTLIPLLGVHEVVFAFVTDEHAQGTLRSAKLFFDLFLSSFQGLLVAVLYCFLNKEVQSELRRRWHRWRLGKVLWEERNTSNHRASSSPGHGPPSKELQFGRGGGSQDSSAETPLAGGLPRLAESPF

Assay (I) Glucagon [EC50]	Binder
0.253 nM	HSQGTFTSDYSRYLDLRRAQDFVK([γGlu-γGlu-AEEA-AEEA-γGlu-C18 diacid])WLLAT
0.081 nM	HSQGTFTSDYSKYLDVRRAQDFVK([γGlu-γGlu-AEEA-AEEA-γGlu-C18 diacid])WLLNT
0.016 nM	HSQGTFTSDYSRYLDARRAQDFVK([γGlu-γGlu-γGlu-C16 diacid])WLLST
0.09 nM	HSQGTFTSDYSRYLDLRRAQDFVK([γGlu-γGlu-AEEA-AEEA-γGlu-C16 diacid])WLLGT
0.231 nM	HSQGTFTSDYSRYLDLRRAQDFVK([γGlu-γGlu-AEEA-AEEA-γGlu-X2])WLLST
0.357 nM	HSQGTFTSDYSRYLDLRRAQDFVK([γGlu-γGlu-AEEA-AEEA-X1])WLLST
0.189 nM	HSQGTFTSDYSKYLDIRRAQDFVK([γGlu-γGlu-γGlu-γGlu-C18 diacid])WLLST
0.022 nM	HSQGTFTSDYSRYLDARRAQDFVK([γGlu-γGlu-AEEA-AEEA-γGlu-C16 diacid])WLLST
0.126 nM	HSQGTFTSDYSKYLDLRRAQDFVK([γGlu-γGlu-γGlu-γGlu-C18 diacid])WLLST
0.017 nM	HSQGTFTSDYSKYLDTRRAQDFVK([γGlu-γGlu-AEEA-AEEA-γGlu-C16 diacid])WLLST
0.109 nM	HSQGTFTSDYSRYLDLRRAQDFVK([γGlu-γGlu-γGlu-γGlu-C16 diacid])WLLST
0.343 nM	HSQGTFTSDYSRYLDLRRAQDFVK([γGlu-γGlu-γGlu-γGlu-C18 diacid])WLLST
0.064 nM	HSQGTFTSDYSRYLDLRRAQDFVK([γGlu-γGlu-AEEA-AEEA-γGlu-C16 diacid])WLLAT
0.47 nM	HSQGTFTSDYSRYLDLRRAQDFVK([γGlu-γGlu-AEEA-AEEA-γGlu-C18 diacid])WLLGT
0.402 nM	B1
0.071 nM	HSQGTFTSDYSKYLESRRAQDFVK([γGlu-γGlu-AEEA-AEEA-γGlu-C16 diacid])WLLST
